This is an account of results in patent publication US20110008350A1 (published 2011).

Sequences and labels used below:
B2: dTag PSH1 (double-tagged human Presenilin homolog 1) (other, UniProt Q8TCT6 1-384, looked up, not shown: small tags and cut ends)
chain: MAEQTYSWAYSLVDSSQVSTFLISILLIVYGSFRSLNMDFENQDKEKDSNSSSGSFNGNSTNNSIQTIDSTQALFLPIGASVSLLVMFFFFDSVQVVFTICTAVLATIAFAFLLLPMCQYLTRPCSPQNKISFGCCGRFTAAELLSFSLSVMLVLIWVLTGHWLLMDALAMGLCVAMIAFVRLPSLKVSCLLLSGLLIYDVFWVFFSAYIFNSNVMVKVATQPADNPLDVLSRKLHLGPNVGRDVPRLSLPGKLVFPSSTGSHFSMLGIGDIVMPGLLLCFVLRYDNYKKQASGDSCGAPGPANISGRMQKVSYFHCTLIGYFVGLLTATVASRIHRAAQPALLYLVPFTLLPLLTMAYLKGDLRRMWSEPFHSKSSSSRFLEV
notes: Control bait, stably expressed in PS dKO MEF cells; also called dTag SPPL3; SPP-like protease 3

The target in test [1] is B2. In words: TAP-tag purification from MEF membranes, LC-MS/MS. The procedure: (§1) Harvested MEF cells were re-suspended in STE buffer (5 mM Tris-HCl pH 7.4, 250 mM sucrose, 1 mM EGTA) supplemented with the Complete protease inhibitors. The cells were lysed by being passed ten times through a ball-bearing cell cracker followed by removal of the nuclei and cell debris by centrifugation at 800×g for ten minutes at 4° C. The supernatant was further centrifuged at 100,000×g for 60 minutes at 4° C. The microsomal membrane pellet was re-suspended in the solubilization buffer (HEPES buffer; 50 mM HEPES pH 7.2, 150 mM NaCl with 1% 3-[(3-Cholamidopropyl)dimethylammonio]-2-hydroxy-1-propanesulfonate (CHAPSO, Calbiochem) or 0.5% 3-[(3-Cholamidopropyl) dimethylammonio]-1-propanesulfonate (CHAPS, Calbiochem)) supplemented with the Complete protease inhibitors and was solubilized at 4° C. for three hours. After centrifugation at 100,000×g for 60 minutes at 4° C., the supernatant was saved and protein concentration was determined. The solubilized membranes were applied on pre-equilibrated anti-FLAG M2 affinity gel (Sigma). The gel was washed with the solubilization buffer and bound proteins were eluted with solubilization buffer with 20 μg/ml of FLAG peptides (Sigma). […] After washing, the bound proteins were eluted with 5 mM EGTA.

The target in a further test is T1, Integrin beta-1 (mouse, UniProt P09055 21-798).
T1 construct: also called Itgb1; α3β1 integrin (beta chain)
Put plainly: TAP-tag purification from MEF membranes, LC-MS/MS. The procedure:
as §1

The next test has as its target T2, Integrin alpha-3 (mouse, UniProt Q62470 33-1053, limits assumed).
T2 construct: also called Itga3; α3β1 integrin (alpha chain)
T2 sequence (looked up): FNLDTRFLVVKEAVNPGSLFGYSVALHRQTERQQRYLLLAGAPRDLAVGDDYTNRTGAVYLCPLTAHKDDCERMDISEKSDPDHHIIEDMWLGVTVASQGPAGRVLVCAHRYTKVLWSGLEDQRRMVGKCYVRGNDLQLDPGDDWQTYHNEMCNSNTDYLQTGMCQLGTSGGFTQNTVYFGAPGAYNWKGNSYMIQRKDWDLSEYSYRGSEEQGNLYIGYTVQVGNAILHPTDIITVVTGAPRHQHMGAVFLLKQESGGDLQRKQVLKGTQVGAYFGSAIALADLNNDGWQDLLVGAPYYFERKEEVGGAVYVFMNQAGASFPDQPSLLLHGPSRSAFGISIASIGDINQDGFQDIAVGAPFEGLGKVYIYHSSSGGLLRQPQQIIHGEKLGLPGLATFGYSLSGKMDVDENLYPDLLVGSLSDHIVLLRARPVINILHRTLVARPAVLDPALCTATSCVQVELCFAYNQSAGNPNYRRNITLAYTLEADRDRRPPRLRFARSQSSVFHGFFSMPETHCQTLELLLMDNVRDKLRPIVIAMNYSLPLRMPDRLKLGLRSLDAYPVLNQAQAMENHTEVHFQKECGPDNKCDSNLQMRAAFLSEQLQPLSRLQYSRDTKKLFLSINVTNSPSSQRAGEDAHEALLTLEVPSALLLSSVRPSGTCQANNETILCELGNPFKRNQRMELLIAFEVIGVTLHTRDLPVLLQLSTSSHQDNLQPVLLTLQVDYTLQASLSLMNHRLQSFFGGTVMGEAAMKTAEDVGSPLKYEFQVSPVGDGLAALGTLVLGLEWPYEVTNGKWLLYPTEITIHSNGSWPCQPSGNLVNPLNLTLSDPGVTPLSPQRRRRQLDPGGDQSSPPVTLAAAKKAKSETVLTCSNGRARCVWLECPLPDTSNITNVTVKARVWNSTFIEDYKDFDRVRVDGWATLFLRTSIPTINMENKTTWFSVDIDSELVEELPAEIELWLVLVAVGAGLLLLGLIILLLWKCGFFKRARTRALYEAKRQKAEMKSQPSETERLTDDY
Put plainly: TAP-tag purification from MEF membranes, LC-MS/MS. The procedure:
as §1

Test [2] addresses T3, PGRL/EWI-2 (endogenous, MEF cells) (mouse, UniProt Q8R366 26-611).
T3 construct: also called Igsf8
T3 sequence (looked up): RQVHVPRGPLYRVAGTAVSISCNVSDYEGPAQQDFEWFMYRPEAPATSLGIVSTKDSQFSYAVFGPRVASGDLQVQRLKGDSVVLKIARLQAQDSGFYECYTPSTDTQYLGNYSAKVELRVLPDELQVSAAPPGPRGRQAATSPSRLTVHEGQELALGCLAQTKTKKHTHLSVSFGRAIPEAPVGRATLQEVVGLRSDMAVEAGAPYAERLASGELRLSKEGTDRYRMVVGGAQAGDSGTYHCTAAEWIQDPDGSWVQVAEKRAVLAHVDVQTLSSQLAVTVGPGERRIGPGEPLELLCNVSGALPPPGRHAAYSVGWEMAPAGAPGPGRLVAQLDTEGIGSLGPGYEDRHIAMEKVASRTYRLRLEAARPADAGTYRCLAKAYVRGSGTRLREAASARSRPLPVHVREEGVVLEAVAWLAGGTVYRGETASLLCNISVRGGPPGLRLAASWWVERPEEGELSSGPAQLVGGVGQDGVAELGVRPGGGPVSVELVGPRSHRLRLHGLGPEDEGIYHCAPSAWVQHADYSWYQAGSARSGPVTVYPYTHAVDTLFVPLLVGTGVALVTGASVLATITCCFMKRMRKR
In words: TAP-tag purification from MEF membranes, LC-MS/MS. The procedure: as §1

Test [3] addresses T4, Nicastrin (endogenous, MEF cells) (mouse, UniProt P57716 28-708).
T4 construct: also called NCT
Put plainly: TAP-tag purification from MEF membranes, Western blot. (In general: In western blotting, separated proteins are transferred to a membrane and probed.)
Experimental: Insoluble fractions were removed by centrifugation at 15,000×g for 15 minutes at 4° C. Protein concentration was determined by the Bradford dye-binding procedure (Bio-Rad). […] Membranes were blocked with 5% skim milk in TBS and probed with antibodies followed by incubation with horseradish peroxidase conjugated antibodies (Bio-Rad). Bands were detected with Renaissance (ParkinElmer).
Harvested MEF cells were re-suspended in STE buffer (5 mM Tris-HCl pH 7.4, 250 mM sucrose, 1 mM EGTA) supplemented with the Complete protease inhibitors. The cells were lysed by being passed ten times through a ball-bearing cell cracker followed by removal of the nuclei and cell debris by centrifugation at 800×g for ten minutes at 4° C. The supernatant was further centrifuged at 100,000×g for 60 minutes at 4° C. The microsomal membrane pellet was re-suspended in the solubilization buffer (HEPES buffer; 50 mM HEPES pH 7.2, 150 mM NaCl with 1% 3-[(3-Cholamidopropyl)dimethylammonio]-2-hydroxy-1-propanesulfonate (CHAPSO, Calbiochem) or 0.5% 3-[(3-Cholamidopropyl) dimethylammonio]-1-propanesulfonate (CHAPS, Calbiochem)) supplemented with the Complete protease inhibitors and was solubilized at 4° C. for three hours. After centrifugation at 100,000×g for 60 minutes at 4° C., the supernatant was saved and protein concentration was determined. […]

B1: CD81/TAPA-1 (endogenous, MEF cells) (other, mouse, UniProt P35762 1-236, looked up)
chain: MGVEGCTKCIKYLLFVFNFVFWLAGGVILGVALWLRHDPQTTSLLYLELGNKPAPNTFYVGIYILIAVGAVMMFVGFLGCYGAIQESQCLLGTFFTCLVILFACEVAAGIWGFVNKDQIAKDVKQFYDQALQQAVMDDDANNAKAVVKTFHETLNCCGSNALTTLTTTILRNSLCPSGGNILTPLLQQDCHQKIDELFSGKLYLIGIAAIVVAVIMIFEMILSMVLCCGIRNSSVY
Take B1: in test [1], the binding result is reported as “no binding”.

Regarding B2, the binding result (with Integrin beta-1; with Integrin alpha-3; in test [2]; in test [3]) was “no binding” throughout.
